Source: paper PMC3252480 (Nature structural & molecular biology, 2011)

T1: GST-Ypt53 (S. cerevisiae, UniProt P36019 1-220)
T1 sequence (looked up): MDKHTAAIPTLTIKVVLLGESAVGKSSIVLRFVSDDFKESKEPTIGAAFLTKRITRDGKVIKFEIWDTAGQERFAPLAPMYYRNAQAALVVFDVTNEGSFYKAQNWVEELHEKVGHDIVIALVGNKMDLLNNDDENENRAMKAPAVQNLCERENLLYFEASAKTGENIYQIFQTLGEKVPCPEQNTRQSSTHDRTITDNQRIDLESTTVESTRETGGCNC

B1: Vps21-His10 (natural protein, S. cerevisiae, UniProt P36017 1-210, looked up)
chain: MNTSVTSIKLVLLGEAAVGKSSIVLRFVSNDFAENKEPTIGAAFLTQRVTINEHTVKFEIWDTAGQERFASLAPMYYRNAQAALVVYDVTKPQSFIKARHWVKELHEQASKDIIIALVGNKIDMLQEGGERKVAREEGEKLAEEKGLLFFETSAKTGENVNDVFLGIGEKIPLKTAEEQNSASNERESNNQRVDLNAANDGTSANSACSC
B2: GST-Ypt10 (natural protein, S. cerevisiae, UniProt P38146 1-199, looked up)
chain: MEATIKVVLLGDSSVGKTSIVTRLKSGKFLAKHAATIGAAFITKTIEVPSNDSSTEKRIHMEIWDTAGQERYKSLVPMYYRDANIALIVFELGDVSSLQCAKTWFQDLQDRAQGTQVIIVGNKYDLVCEEHSGEVTIPAELQGLPYVAVSAKTGYNFDTLNKIIISLVPESQFKTLSKNNEQGNILEINKKKSGSGCIC

Key:
[1] = target: Vps21-His10 (S. cerevisiae) (UniProt P36017); experiment: liposome tethering by quasielastic light scattering
GST-Ypt53 = target: T1, GST-Ypt53; experiment: bead-liposome tethering assay
Vps21-His10 = target: B1; experiment: bead-liposome tethering assay

“Vps21-His10 (from UniProt P36017 1-210) (natural protein)” was tested, and the critical surface density for tethering [1] was < 1300 μm^−2.

B1: binds (GST-Ypt53).

B2: binds (Vps21-His10).
